Results reported in IntAct's records for PubMed 16778766.

B1: Estrogen receptor (Mus musculus), P19785 (parent)
chain: MTMTLHTKASGMALLHQIQGNELEPLNRPQLKMPMERALGEVYVDNSKPTVFNYPEGAAYEFNAAAAAAAAASAPVYGQSGIAYGPGSEAAAFSANSLGAFPQLNSVSPSPLMLLHPPPQLSPFLHPHGQQVPYYLENEPSAYAVRDTGPPAFYRSNSDNRRQNGRERLSSSNEKGNMIMESAKETRYCAVCNDYASGYHYGVWSCEGCKAFFKRSIQGHNDYMCPATNQCTIDKNRRKSCQACRLRKCYEVGMMKGGIRKDRRGGRMLKHKRQRDDLEGRNEMGASGDMRAANLWPSPLVIKHTKKNSPALSLTADQMVSALLDAEPPMIYSEYDPSRPFSEASMMGLLTNLADRELVHMINWAKRVPGFGDLNLHDQVHLLECAWLEILMIGLVWRSMEHPGKLLFAPNLLLDRNQGKCVEGMVEIFDMLLATSSRFRMMNLQGEEFVCLKSIILLNSGVYTFLSSTLKSLEEKDHIHRVLDKITDTLIHLMAKAGLTLQQQHRRLAQLLLILSHIRHMSNKGMEHLYNMKCKNVVPLYDLLLEMLDAHRLHAPASRMGVPPEEPSQTQLATTSSTSAHSLQTYYIPPEAEGFPNTI

Variants of: B1
Settings: with cnot1_human CNOT1, A5YKK6
cnot1_human CNOT1, A5YKK6, sequence (A5YKK6 whole entry): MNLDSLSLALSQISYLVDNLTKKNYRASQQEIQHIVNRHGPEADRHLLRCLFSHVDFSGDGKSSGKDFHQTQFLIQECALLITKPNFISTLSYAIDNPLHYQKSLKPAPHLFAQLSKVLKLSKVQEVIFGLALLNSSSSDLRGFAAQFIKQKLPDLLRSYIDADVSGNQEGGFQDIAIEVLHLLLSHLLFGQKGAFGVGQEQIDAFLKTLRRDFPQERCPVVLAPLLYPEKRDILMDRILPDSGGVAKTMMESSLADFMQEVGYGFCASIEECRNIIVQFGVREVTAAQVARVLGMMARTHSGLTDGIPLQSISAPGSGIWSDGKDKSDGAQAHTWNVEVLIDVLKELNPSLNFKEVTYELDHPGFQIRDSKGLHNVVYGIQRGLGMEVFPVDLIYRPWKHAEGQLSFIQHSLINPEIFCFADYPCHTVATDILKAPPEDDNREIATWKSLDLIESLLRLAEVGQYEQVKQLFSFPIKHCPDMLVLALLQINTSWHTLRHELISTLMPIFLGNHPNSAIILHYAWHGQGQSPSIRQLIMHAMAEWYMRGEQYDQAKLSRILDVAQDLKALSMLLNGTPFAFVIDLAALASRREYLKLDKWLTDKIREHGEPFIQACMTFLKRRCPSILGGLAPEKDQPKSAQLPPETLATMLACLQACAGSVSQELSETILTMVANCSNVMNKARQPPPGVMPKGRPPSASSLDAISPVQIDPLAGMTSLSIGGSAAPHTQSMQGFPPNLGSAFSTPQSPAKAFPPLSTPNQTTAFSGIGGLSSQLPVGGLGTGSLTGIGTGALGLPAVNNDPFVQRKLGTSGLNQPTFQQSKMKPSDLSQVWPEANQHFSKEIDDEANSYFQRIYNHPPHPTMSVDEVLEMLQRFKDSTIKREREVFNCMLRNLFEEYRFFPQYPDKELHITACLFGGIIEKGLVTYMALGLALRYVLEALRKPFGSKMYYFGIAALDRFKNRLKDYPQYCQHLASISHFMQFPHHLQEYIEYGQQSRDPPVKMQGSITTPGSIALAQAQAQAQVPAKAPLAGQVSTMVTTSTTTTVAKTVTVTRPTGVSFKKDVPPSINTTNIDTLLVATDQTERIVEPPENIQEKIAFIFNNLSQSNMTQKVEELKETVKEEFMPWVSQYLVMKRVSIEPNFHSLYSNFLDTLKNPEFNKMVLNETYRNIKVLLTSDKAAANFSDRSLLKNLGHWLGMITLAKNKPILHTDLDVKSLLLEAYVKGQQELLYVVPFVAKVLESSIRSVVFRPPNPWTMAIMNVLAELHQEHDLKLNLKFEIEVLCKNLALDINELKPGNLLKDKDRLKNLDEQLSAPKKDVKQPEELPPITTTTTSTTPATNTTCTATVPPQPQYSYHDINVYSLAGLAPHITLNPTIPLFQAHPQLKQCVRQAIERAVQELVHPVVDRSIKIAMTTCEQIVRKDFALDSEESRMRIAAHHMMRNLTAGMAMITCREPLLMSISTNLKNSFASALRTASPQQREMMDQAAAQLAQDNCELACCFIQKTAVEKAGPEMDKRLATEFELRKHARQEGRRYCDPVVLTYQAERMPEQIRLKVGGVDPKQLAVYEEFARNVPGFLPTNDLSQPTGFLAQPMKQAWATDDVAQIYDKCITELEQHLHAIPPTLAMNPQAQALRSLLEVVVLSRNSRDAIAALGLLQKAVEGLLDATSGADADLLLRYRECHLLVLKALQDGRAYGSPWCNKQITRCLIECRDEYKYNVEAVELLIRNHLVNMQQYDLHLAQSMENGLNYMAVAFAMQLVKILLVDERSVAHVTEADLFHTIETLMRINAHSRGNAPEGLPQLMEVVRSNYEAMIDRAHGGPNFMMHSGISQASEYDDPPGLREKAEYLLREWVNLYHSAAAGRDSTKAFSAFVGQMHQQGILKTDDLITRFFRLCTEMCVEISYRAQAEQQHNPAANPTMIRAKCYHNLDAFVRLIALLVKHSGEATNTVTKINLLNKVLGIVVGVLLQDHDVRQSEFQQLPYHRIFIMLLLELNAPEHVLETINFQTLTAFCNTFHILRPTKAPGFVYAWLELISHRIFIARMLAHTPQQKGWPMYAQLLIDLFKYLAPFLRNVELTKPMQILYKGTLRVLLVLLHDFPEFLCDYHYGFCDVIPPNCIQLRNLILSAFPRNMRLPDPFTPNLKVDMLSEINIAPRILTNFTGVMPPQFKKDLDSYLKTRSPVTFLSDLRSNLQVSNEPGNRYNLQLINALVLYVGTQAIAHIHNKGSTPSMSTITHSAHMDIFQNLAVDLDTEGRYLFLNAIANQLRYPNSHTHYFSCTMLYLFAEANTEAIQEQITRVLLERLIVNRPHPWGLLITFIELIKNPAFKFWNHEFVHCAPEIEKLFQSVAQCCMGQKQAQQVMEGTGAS

| effect of a mutation on the interaction | Variant |
| --- | --- |
| disrupting interaction | M547A |
| disrupting interaction | L548A |
